Assay results from US10500249B2, “Compositions and methods for preventing or treating diseases, conditions, or processes characterized by aberrant fibroblast proliferation and extracellular matrix deposition” (MOERAE MATRIX, INC., priority 2014, dated 2019).

Columns and labels:
Assay in all cases: Kinase Profiling Assay
Assay type in all cases: biochemical
Conditions in all cases: 100 μM
IR (h) = molecular target: T1, IR (h) (Homo sapiens, UniProt P06213)
T1 construct: purchased Millipore
Procedure, shortened: (§1)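 Duplicate wells; [radiolabeled] ATP phosphate onto cationic substrate; filter capture (negatively charged membrane); scintillation count; % of 100% activity control. Selectivity screen of MK2 peptide inhibitors, 266 human kinases.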

CLK3 (h) = molecular target: T2, CLK3 (h) (Homo sapiens, UniProt P49761)
T2 construct: purchased Millipore
Procedure, shortened: as §1

MARK1 (h) = MARK1 (h) (Homo sapiens, UniProt Q9P0L2)
Procedure, shortened: as §1

HIPK1 (h) = molecular target: T3, HIPK1 (h) (Homo sapiens, UniProt Q86Z02)
T3 construct: purchased Millipore
Procedure, shortened: as §1

Hck (h) = molecular target: T4, Hck (h) (Homo sapiens, UniProt P08631)
T4 construct: purchased Millipore
Procedure, shortened: as §1

EphB3 (h) = molecular target: T5, EphB3 (h) (Homo sapiens, UniProt P54753)
T5 sequence (P54753 34-998): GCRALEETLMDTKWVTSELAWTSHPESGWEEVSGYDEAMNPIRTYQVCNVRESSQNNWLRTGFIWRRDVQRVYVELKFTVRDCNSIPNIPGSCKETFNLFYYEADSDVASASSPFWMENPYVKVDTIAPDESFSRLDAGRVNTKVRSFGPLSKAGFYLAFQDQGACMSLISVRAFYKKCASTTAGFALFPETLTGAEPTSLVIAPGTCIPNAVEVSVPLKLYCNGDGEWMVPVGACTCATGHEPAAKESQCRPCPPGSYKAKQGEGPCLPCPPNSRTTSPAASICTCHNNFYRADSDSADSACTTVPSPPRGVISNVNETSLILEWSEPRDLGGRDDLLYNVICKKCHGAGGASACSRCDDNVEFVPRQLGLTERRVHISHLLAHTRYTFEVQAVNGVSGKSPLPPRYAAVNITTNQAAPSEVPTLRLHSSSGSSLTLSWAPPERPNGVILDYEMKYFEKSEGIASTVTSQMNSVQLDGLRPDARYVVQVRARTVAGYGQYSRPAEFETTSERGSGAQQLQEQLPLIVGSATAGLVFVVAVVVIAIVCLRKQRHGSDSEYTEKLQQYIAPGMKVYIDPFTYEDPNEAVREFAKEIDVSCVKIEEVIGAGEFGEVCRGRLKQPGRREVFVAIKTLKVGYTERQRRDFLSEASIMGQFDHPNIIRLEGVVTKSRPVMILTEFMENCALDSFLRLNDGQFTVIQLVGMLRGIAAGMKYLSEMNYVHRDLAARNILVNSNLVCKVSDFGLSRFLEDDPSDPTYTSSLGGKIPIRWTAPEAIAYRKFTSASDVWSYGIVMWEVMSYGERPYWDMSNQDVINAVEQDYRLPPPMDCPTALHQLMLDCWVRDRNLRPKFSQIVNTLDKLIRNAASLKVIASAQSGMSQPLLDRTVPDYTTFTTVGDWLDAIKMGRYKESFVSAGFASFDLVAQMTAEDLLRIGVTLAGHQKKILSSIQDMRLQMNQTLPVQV
Procedure, shortened: as §1

MEK1 (h) = MEK1 (h) (Homo sapiens, UniProt Q02750)
Procedure, shortened: as §1

cKit(V654A) (h) = molecular target: T6, cKit(V654A) (h) (Homo sapiens, UniProt P10721, V654A)
T6 construct: purchased Millipore
Procedure, shortened: as §1

NEK11 (h) = molecular target: T7, NEK11 (h) (Homo sapiens, UniProt Q8NG66)
T7 construct: purchased Millipore
T7 sequence (Q8NG66 1-645): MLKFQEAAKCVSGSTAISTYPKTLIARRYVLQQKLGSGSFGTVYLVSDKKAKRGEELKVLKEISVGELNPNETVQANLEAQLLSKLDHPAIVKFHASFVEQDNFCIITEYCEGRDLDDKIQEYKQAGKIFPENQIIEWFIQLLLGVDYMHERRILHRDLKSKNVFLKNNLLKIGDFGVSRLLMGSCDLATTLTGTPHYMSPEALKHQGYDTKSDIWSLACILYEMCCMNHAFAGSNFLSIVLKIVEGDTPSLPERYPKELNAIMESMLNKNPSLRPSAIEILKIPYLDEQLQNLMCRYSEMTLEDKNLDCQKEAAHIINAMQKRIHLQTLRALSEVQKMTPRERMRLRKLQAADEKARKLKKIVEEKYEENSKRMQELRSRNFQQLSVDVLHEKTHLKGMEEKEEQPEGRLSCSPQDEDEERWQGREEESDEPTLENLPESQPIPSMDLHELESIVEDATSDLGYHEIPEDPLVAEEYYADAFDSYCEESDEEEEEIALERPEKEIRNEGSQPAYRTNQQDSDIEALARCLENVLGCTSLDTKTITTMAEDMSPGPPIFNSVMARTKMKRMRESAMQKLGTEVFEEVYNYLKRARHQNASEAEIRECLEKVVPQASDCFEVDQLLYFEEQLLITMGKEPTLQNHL
Procedure, shortened: as §1

FGFR2 (h) = FGFR2 (h) (Homo sapiens, UniProt P21802)
Procedure, shortened: as §1

Tie2 (h) = Tie2 (h) (Homo sapiens, UniProt Q02763)
Procedure, shortened: as §1

CDK2/cyclinE (h) = molecular target: T8, CDK2/cyclinE (h) (Homo sapiens, UniProt P24941)
T8 construct: purchased Millipore
Procedure, shortened: as §1

BTK (h) = BTK (h) (Homo sapiens, UniProt Q06187)
Procedure, shortened: as §1

Tie2 (h), sequence (Q02763 23-1124): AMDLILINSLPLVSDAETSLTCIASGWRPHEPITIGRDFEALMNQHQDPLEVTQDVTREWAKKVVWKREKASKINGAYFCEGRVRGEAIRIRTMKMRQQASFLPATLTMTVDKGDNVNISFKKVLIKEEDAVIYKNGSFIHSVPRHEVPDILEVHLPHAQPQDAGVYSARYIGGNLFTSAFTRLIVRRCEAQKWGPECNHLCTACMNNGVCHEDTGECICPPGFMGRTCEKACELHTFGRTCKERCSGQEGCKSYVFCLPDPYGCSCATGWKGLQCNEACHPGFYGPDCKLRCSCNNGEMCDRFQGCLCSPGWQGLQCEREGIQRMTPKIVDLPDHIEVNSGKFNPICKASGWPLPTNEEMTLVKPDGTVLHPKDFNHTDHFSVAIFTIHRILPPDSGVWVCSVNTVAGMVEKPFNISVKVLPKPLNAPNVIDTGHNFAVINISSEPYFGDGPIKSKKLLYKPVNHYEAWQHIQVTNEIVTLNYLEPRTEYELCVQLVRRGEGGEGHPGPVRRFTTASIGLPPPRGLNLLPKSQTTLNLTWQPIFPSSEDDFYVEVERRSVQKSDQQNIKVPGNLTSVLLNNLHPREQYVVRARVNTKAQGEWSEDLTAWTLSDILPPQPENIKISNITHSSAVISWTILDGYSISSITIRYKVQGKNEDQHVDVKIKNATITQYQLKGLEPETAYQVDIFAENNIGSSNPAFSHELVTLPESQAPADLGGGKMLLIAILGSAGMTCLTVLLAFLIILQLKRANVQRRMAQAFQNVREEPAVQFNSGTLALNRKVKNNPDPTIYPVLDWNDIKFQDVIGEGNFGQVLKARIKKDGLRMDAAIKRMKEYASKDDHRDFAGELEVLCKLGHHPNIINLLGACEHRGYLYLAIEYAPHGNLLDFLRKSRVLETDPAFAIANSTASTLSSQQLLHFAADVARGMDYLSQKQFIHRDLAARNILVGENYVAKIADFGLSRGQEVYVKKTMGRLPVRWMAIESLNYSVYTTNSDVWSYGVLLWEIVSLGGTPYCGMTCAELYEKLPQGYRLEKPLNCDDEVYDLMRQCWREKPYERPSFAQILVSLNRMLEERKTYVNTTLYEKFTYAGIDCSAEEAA
T2 sequence (P49761 whole entry): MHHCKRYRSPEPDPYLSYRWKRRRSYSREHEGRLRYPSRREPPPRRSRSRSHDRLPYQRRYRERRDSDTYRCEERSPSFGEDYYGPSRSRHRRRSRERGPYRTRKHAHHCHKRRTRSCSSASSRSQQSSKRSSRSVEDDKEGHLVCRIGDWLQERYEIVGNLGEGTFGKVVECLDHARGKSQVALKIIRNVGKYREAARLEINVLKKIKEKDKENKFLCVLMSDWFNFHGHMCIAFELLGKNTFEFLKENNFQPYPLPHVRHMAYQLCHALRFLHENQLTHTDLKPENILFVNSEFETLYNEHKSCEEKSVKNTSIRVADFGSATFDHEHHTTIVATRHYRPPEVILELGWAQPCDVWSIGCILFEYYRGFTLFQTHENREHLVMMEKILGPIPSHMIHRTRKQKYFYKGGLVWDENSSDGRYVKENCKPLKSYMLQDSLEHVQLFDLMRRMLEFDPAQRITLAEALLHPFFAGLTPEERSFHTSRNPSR
BTK (h), sequence (Q06187 whole entry): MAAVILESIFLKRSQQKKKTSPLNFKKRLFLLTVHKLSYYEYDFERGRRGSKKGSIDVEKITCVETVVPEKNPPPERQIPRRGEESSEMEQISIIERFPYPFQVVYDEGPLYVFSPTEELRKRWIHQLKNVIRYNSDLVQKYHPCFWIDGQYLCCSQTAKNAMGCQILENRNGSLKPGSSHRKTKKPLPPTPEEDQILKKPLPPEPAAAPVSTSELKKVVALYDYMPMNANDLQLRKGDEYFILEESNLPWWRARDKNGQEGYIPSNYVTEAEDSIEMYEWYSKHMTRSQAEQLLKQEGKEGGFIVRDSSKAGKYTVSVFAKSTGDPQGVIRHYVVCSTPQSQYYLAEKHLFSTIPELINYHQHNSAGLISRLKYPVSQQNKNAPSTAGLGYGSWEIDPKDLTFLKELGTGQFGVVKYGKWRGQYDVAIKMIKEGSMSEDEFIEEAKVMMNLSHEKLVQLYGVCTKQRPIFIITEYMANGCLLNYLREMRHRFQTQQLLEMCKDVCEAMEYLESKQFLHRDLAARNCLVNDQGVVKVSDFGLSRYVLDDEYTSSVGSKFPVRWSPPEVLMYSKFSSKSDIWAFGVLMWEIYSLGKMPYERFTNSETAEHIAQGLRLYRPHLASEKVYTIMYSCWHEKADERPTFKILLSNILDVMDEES
T3 sequence (Q86Z02 whole entry): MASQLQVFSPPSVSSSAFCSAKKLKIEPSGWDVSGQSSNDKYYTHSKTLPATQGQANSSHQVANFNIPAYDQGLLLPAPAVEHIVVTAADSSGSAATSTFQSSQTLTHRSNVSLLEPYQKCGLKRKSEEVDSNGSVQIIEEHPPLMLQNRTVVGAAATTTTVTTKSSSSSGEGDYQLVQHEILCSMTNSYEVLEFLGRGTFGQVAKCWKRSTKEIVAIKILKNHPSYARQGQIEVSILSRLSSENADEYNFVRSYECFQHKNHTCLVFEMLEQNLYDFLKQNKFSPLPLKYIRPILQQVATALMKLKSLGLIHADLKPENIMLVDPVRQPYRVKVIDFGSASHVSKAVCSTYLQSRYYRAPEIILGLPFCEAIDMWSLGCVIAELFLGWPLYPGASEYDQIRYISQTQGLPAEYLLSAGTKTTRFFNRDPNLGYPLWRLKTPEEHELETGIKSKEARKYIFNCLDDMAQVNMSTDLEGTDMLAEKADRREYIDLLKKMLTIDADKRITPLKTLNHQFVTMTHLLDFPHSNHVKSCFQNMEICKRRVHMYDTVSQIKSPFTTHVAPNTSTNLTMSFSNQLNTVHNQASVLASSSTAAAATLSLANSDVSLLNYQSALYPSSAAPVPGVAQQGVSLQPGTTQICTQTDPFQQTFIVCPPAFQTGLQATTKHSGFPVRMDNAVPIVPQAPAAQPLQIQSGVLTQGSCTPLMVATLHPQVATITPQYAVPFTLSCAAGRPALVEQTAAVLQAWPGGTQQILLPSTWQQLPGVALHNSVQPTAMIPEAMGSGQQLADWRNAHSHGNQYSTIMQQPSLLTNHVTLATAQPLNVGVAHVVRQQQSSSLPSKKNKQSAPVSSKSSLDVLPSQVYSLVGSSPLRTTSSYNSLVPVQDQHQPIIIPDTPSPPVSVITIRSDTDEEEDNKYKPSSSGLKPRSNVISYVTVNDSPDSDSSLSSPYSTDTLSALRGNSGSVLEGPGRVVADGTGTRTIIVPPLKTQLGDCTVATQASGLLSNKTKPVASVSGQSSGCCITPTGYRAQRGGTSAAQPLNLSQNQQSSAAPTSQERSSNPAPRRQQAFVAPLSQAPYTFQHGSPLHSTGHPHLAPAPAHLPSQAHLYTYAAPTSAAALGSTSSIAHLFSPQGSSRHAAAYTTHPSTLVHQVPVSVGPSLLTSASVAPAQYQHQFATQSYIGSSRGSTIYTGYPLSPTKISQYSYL
MARK1 (h), sequence (Q9P0L2 whole entry): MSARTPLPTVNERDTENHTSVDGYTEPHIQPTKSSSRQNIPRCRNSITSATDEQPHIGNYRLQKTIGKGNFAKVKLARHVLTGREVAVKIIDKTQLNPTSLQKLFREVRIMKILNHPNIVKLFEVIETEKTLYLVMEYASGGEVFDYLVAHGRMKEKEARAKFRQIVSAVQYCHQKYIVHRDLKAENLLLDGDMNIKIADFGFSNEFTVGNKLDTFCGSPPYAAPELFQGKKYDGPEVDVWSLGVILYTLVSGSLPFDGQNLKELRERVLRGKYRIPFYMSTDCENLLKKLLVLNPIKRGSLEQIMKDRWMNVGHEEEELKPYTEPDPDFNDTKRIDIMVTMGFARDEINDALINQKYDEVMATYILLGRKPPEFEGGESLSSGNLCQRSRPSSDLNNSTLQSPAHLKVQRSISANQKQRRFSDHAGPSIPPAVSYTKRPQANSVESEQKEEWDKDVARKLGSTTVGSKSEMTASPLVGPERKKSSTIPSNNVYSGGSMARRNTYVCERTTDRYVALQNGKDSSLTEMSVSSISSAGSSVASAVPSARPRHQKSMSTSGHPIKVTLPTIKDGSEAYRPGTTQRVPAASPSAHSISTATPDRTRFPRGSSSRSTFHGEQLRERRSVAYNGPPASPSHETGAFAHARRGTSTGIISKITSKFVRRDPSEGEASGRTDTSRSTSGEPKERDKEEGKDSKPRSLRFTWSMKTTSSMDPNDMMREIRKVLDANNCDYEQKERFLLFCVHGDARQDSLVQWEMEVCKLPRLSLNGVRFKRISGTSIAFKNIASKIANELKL
T4 sequence (P08631 whole entry): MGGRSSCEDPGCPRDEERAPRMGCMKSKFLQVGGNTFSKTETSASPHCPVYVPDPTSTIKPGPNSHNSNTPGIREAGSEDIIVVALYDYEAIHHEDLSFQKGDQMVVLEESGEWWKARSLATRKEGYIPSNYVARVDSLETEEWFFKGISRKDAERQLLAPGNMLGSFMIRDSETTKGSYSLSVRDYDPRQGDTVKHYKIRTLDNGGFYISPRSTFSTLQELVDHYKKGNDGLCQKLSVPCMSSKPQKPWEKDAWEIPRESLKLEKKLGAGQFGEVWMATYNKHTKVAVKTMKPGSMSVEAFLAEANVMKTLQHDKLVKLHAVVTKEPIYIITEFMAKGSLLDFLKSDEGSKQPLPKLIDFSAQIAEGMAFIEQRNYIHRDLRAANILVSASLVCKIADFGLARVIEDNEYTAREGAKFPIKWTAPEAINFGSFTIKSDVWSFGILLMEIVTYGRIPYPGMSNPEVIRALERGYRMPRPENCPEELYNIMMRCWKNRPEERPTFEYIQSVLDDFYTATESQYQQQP

Sequence | % activity (IR (h)) [%] | % activity (CLK3 (h)) [%] | % activity (MARK1 (h)) [%] | % activity (HIPK1 (h)) [%] | % activity (Hck (h)) [%] | % activity (EphB3 (h)) [%] | % activity (MEK1 (h)) [%] | % activity (cKit(V654A) (h)) [%] | % activity (NEK11 (h)) [%] | % activity (FGFR2 (h)) [%] | % activity (Tie2 (h)) [%] | % activity (CDK2/cyclinE (h)) [%] | % activity (BTK (h)) [%]
FAKLAARLYRKALARQLGVAA [MMI-0300] | 96 | 61 | 132 | 74 | 72 | 62 | 77 | 134 | 53 | 14 | 26 | 94 | 
HRRIKAWLKKIKALARQLGVAA (Mammalian) [MMI-0500] | 95 | 76 | 110 | 47 | 78 | 79 | 21 | 223 | 2 | 12 | 22 | 19 | 18
KAFAKLAARLYRKALARQLGVAA [MMI-0400] | 85 | 84 | 120 | 91 | 72 | 47 | 77 | 150 | 33 | 18 | 21 | 83 | 94
YARAAARQARAKALNRQLGVA (Mammalian) [MMI-0200] | 90 | 76 |  |  |  | 128 |  |  | 95 | 73 | 53 |  | 100
